Data published in publication PMC10508174 (Cell reports, 2023).
Residue numbers refer to the chain shown, from its start.

What was measured:
DDX39B (residues 44-428) = DDX39B (residues 44-428) (human, UniProt Q13838 44-428); test: crystal structure
SARNP (residues 1-210) = target: T1, SARNP (residues 1-210) (human, UniProt P82979 1-210); test: MST
T1 sequence (looked up): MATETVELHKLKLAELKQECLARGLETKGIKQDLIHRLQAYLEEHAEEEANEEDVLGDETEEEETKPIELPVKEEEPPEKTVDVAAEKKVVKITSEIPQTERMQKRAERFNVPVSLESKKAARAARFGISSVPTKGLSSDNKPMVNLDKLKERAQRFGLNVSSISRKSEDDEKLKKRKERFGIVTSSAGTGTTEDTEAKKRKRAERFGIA

[1] = target: T2, SARNP-mut2 (R153A/F157A/R177A/F181A/R203A/F207A) (human, UniProt P82979 1-210, R153A | F157A | R177A | F181A | R203A | F207A); test: MST
T2 sequence (looked up): T1 sequence (looked up) with R153A, F157A, R177A, F181A, R203A, F207A

B1: Tho1 (residues 123-178) (domain or fragment, S. cerevisiae, UniProt P40040 123-178, looked up)
chain: EEIKAKALDLLNKKLHRANKFGQDQADIDSLQRQINRVEKFGVDLNSKLAEELGLV
B1: binds (DDX39B (residues 44-428)).

B2: DDX39B-CTD (residues 259-428) (domain or fragment, human, UniProt Q13838 259-428, looked up)
chain: LHGLQQYYVKLKDNEKNRKLFDLLDVLEFNQVVIFVKSVQRCIALAQLLVEQNFPAIAIHRGMPQEERLSRYQQFKDFQRRILVATNLFGRGMDIERVNIAFNYDMPEDSDTYLHRVARAGRFGTKGLAITFVSDENDAKILNDVQDRFEVNISELPDEIDISSYIEQTR
Binder B2 has an EC50 (SARNP (residues 1-210)) of 1300 nM and an EC50 [1] of 3000 nM.
